T1: SpoIVA, adenylate cyclase T18/T25 hybrid (Bacillus subtilis, UniProt P35149 1-492)
T1 construct: SpoIVA, basement layer coat morphogenetic protein (ATPase) of Bacillus subtilis; gene amplified from genomic DNA; also called T25-SpoIVA; T18-SpoIVA; source: bacterial two-hybrid fusion, E. coli BTH101; not shown: T18 or T25 domain of adenylate cyclase, N-terminal or C-terminal (by the plasmid combination), kept
T1 sequence (looked up): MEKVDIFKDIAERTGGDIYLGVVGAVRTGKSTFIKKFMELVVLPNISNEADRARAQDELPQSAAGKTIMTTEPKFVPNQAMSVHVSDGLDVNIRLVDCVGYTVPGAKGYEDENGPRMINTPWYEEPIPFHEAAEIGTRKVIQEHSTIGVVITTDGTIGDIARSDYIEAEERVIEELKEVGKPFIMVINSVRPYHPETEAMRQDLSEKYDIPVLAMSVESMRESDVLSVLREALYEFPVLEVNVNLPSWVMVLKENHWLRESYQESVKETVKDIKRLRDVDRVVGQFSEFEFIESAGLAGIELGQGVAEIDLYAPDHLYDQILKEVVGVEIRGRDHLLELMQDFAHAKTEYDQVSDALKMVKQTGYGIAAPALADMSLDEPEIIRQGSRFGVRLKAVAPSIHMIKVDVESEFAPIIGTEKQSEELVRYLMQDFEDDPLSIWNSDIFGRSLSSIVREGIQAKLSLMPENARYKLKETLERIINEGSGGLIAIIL

B1: SpoVD, adenylate cyclase T18/T25 hybrid (natural protein, Bacillus subtilis, UniProt Q03524 1-646, looked up)
chain: MRVSNVTVRKRLLFVLLFGVIVFLIIDTRLGYVQFVMGEKLTSLAKDSWSRNLPFEPERGEILDRNGVKLATNKSAPTVFVVPRQVQNPMKTSKQLAAVLNMSEEKVYKHVTKKASIEKITPEGRKISNEKAKEIKALDLKGVYVAEDSIRHYPFGSFLSHVLGFAGIDNQGLLGLEAYYDDDLKGEKGSVKFYTDAKGKKMPDEADDYTPPKDGLDMKLTVDSKVQTIMERELDNAEAKYHPDGMIAVAMNPKNGEILGMSSRPDFDPADYQSVDPSVYNRNLPVWSTYEPGSTFKIITLAAALEEQKVNLKRDQFYDKGHAEVDGARLRCWKRGGHGLQTYLEVVQNSCNPGFVELGERLGKEKLFKYIKDFGFGQKTGIDLQGEGTGILFPLERVGPVEQATTAFGQGVSVTPIQQVAAVSAAVNGGTLYTPYIAKEWIDPVTKKTVKKQSPIAKKQVISEETSKQIRYALESVVAEGTGRNAFVEGYRVGGKTGTAQKVKDGKYLENNHIVSFIGFAPADDPSLVVYVAVDNPKGTIQFGGTVAAPIVGNIMRDSLPELGVKPRKNQIEKKYQWNDTKTIEVPNVVGMSVSDLESLLVNLNVDASGKGSKIVKQSPAAGTKVKEGSKIRVYLTEEDEKEAAD
notes: gene amplified from genomic DNA; the positive combinations are N-terminal fusions; also called T18–SpoVD; T25–SpoVD; source: bacterial two-hybrid fusion, E. coli BTH101; not shown: T18 or T25 domain of adenylate cyclase, N-terminal, kept
B2: SpoVE, adenylate cyclase T18/T25 hybrid (natural protein, Bacillus subtilis, UniProt P07373 1-366, looked up)
chain: MTTKKTSPDLLLVIITLLLLTIGLIMVYSASAVWADYKFDDSFFFAKRQLLFAGIGVIAMFFIMNVDYWTWRTWSKLLMVICFFLLVLVLIPGVGMVRNGSRSWIGVGAFSIQPSEFMKLAMIAFLAKFLSEKQKNITSFRRGFVPALGIVFSAFLIIMCQPDLGTGTVMVGTCIVMIFVAGARIAHFVFLGLIGLSGFVGLVLSAPYRIKRITSYLNPWEDPLGSGFQIIQSLYAVGPGGLFGMGLGQSRQKFFYLPEPQTDFIFAILSEELGFIGGTLILLLFSVLLWRGIRIALGAPDLYGSFVAVGIISMIAIQVMINIGVVTGLIPVTGITLPFLSYGGSSLTLMLMAVGVLLNVSRYSRY
notes: SpoVE, SEDS family membrane protein essential for cortex synthesis, Bacillus subtilis; gene amplified from genomic DNA; also called SpoVE–T18; T25–SpoVE; source: bacterial two-hybrid fusion, E. coli BTH101; not shown: T18 or T25 domain of adenylate cyclase, N-terminal or C-terminal (by the plasmid combination), kept
B3: YheD, adenylate cyclase T18/T25 hybrid (natural protein, Bacillus subtilis, UniProt O07545 1-453, looked up)
chain: MNPKRFLIGIDKTSENTLFLPSSLKQDGLLHAAFGTKVVRCHVAYRRHLEQTVLLSENLFHELLLPHRSRADILIHDHTVHIGPLVGIFTAGFTVSLERPFKDRSLFFSKLVTLHEQAGGYCFVFGAHQINWEEGTIEGLLYRENGWEKKIVPLPNVVYDRLPNRKIEDSLLLQHTKKRLIDEYQIPWFNKTFFNKWNVHQLLEKDPRTAPFLPRSELTPSVELIDELCGAYKKVYIKPANGALGTGIYQLTRTDGGLTVKHTNDAKTFTSIDYSDAASFLAEFQKHHNPSDFLIQQGVDLIEFQGKPADFRVHTNKNRKGKWTVTAIAVKISGKNSITTHLSNGGTVKTLAEVYDDPAERVEVIKKLSAAALTASHVLHDHIEGFIGEIGFDFGIDQNGKVWMFEANSRPGRSIFSHPNLHHVDSLTKRRSFEYASYLSEKAITSPEALWPS
notes: YheD, spore coat protein of unknown function of Bacillus subtilis; gene amplified from genomic DNA; also called T25–YheD; YheD–T18; source: bacterial two-hybrid fusion, E. coli BTH101; not shown: T18 or T25 domain of adenylate cyclase, N-terminal or C-terminal (by the plasmid combination), kept
B4: CotE, adenylate cyclase T18/T25 hybrid (natural protein, Bacillus subtilis, UniProt P14016 1-181, looked up)
chain: MSEYREIITKAVVAKGRKFTQCTNTISPEKKPSSILGGWIINHKYDAEKIGKTVEIEGYYDINVWYSYADNTKTEVVTERVKYVDVIKLRYRDNNYLDDEHEVIAKVLQQPNCLEVTISPNGNKIVVQAEREFLAEVVGETKVVVEVNPDWEEDDEEDWEDELDEELEDINPEFLVGDPEE
notes: CotE, spore coat morphogenetic protein of Bacillus subtilis; gene amplified from genomic DNA; also called CotE-T25; T25-CotE; source: bacterial two-hybrid fusion, E. coli BTH101; not shown: T18 or T25 domain of adenylate cyclase, N-terminal or C-terminal (by the plasmid combination), kept
B5: YncD (spore alanine racemase), adenylate cyclase T18/T25 hybrid (natural protein, Bacillus subtilis, UniProt P94494 1-394, looked up)
chain: MIKLCREVWIEVNLDAVKKNLRAIRRHIPHKSKIMAVVKANGYGHGSIEVARHALEHGASELAVASVEEGIVLRKAGITAPILVLGFTSLSCVKKSAAWNITLSAFQVDWMKEANEILEKEASANRLAIHINVDTGMGRLGVRTKEELLEVVKALKASKFLRWTGIFTHFSTADEPDTTLTKLQHEKFISFLSFLKKQGIELPTVHMCNTAAAIAFPEFSADMIRLGIGLYGLYPSAYIKQLNLVKLEPALSLKARIAYVKTMRTEPRTVSYGATYIAEPNEVIATLPIGYADGYSRALSNRGFVLHRGKRVPVAGRVTMDMIMVSLGENGEGKQGDEVVIYGKQKGAEISVDEVAEMLNTINYEVVSTLSRRIPRFYIRDGEIFKVSTPVLYV
notes: YncD, spore alanine racemase of Bacillus subtilis; gene amplified from genomic DNA of strain PY79; Cloned into pUT18, pUT18C, pKT25 and pKNT25; also called T18-YncD; YncD-T18; source: bacterial two-hybrid fusion, E. coli BTH101; not shown: T18 or T25 domain of adenylate cyclase, N-terminal or C-terminal (by the plasmid combination), kept
B6: YhaX, adenylate cyclase T18/T25 hybrid (natural protein, Bacillus subtilis, UniProt O07539 1-288, looked up)
chain: MSKQLLALNIDGALLRSNGKIHQATKDAIEYVKKKGIYVTLVTNRHFRSAQKIAKSLKLDAKLITHSGAYIAEKIDAPFFEKRISDDHTFNIVQVLESYQCNIRLLHEKYSIGNKKKVNSNLLGKALIHPSDPIFYPVQFVESLSDLLMDEPVSAPVIEVYTEHDIQHDITETITKAFPAVDVIRVNDEKLNIVPKGVSKEAGLALVASELGLSMDDVVAIGHQYDDLPMIELAGLGVAMGNAVPEIKRKADWVTRSNDEQGVAYMMKEYFRMQQRKGFLDKFHMKRV
notes: YhaX, spore coat protein of unknown function of Bacillus subtilis; gene amplified from genomic DNA; also called T25–YhaX; YhaX–T18; source: bacterial two-hybrid fusion, E. coli BTH101; not shown: T18 or T25 domain of adenylate cyclase, N-terminal or C-terminal (by the plasmid combination), kept

Experiments:
Test in all cases: two-hybrid; bacterial two hybrid system (BACTH) based on adenylate cyclase T18/T25 fusions in E. coli BTH101; X-gal/IPTG indicator plates at 30 °C for 48 h; beta-galactosidase activity with ONPG in Miller units (Mu)
[1] = target: T2, SpoVM, adenylate cyclase T18/T25 hybrid (Bacillus subtilis, UniProt P37817 1-26); conditions: partners not purified
T2 construct: SpoVM, small 26-amino-acid-long basement layer coat morphogenetic peptide of Bacillus subtilis; gene amplified from genomic DNA; also called T18–SpoVM; SpoVM–T18; source: bacterial two-hybrid fusion, E. coli BTH101; not shown: T18 or T25 domain of adenylate cyclase, N-terminal or C-terminal (by the plasmid combination), kept
T2 sequence (P37817 whole entry, the tested form may be a part): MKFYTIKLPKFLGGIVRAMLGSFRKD

[2] = target: the molecule itself
[3] = target: B4; conditions: partners not purified
[4] = target: T1, SpoIVA, adenylate cyclase T18/T25 hybrid; conditions: partners not purified

| Binder | beta-galactosidase activity (Miller units) [2] | further results |
| --- | --- | --- |
| B1 | 240 Mu | beta-galactosidase activity (Miller units) [1]: 420 Mu |
| B2 | ≤ 360 Mu | beta-galactosidase activity, fold of the negative control [1]: ~2 fold |
| B3 | 1720 Mu |  |
| B4 | 360 Mu |  |
| B5 | 220 Mu | beta-galactosidase activity (Miller units) [3]: 600 Mu; beta-galactosidase activity (Miller units) [4]: 160 Mu |
| B6 | 704 Mu |  |
